Results reported in article PMC5914118, “Exploiting the Concept of Multivalency with ^68Ga- and ^89Zr-Labelled Fusarinine C-Minigastrin Bioconjugates for Targeting CCK2R Expression” (Contrast Media & Molecular Imaging, 2018).
Where two headings read alike, the source gives them in different places. Marks after values point to notes of the source that are not given here.

How the values were obtained:
[1] = format: physicochemical
Protocol: Aliquots (50 μL) of ^68Ga- and ^89Zr-labelled mono-, di-, and trimer (10 μM) were diluted in 450 μL PBS. After adding 500 μL octanol the mixture was vortexed with 1400 rpm (MS 3 basic vortexer, IKA, Staufen, Germany) for 15 min at RT followed by centrifugation for 2 min at 4500 rpm. Subsequently, 100 μL aliquots of the organic and the aqueous layer were collected and logD values were calculated using Excel (n = 3, six replicates) after gamma counter measurement.

[2] = system: A431-CCK2R/A431-mock tumour xenografted BALB/c nude mice; details: mouse, in vivo
Protocol: All animal experiments were conducted in compliance with the Austrian and Dutch animal protection laws and with approval of the Austrian Ministry of Science (BMWF-66.011/000604-II/3b/2012 and BMWFW-66.011/0049-WF/II/3b/2014). In vivo stability studies were conducted in 5-week-old female BALB/c mice (in-house breed, ZVTA Innsbruck, Dr. Hermann Dietrich). The biodistribution studies were performed using female 8−10-week-old athymic BALB/c nude mice (Charles River Laboratories, Sulzfeld, Germany). Tumour xenografts were induced by subcutaneous injection of 2 × 10^6 A431-CCK2R cells (receptor positive) in the right and the same amount of A431-mock (receptor negative) in the left flank. Tumours were allowed to grow until they had reached a volume of 0.3–0.6 cm^3. To evaluate the biodistribution profile nude mice (n = 4) were intravenously injected with either 1-2 MBq ^68Ga- or 0.3 MBq ^89Zr-labelled mono-, di-, and trimer (0.1–0.2 nmol). The animals were sacrificed by cervical dislocation after 1 h as well as 2 h and 4 h in case of ^68Ga- and ^89Zr-labelled trimer, followed by the collection of organs and tissue. The collected samples were measured in the gamma counter and the results were calculated as percentage of injected dose per gram tissue (% ID/g).

[3] = target: T1, human CCK2R (A431-CCK2R cells) (Homo sapiens, UniProt P32239); design: method as in PMID 28462989; details: reference peptide, whole A431-CCK2R cells; cited from earlier work
T1 construct: expressed in transfected cells; host or cells: A431 human epidermoid carcinoma cells, stably transfected (plasmid pCR3.1); gift from Aloj
T1 sequence (P32239 1-447): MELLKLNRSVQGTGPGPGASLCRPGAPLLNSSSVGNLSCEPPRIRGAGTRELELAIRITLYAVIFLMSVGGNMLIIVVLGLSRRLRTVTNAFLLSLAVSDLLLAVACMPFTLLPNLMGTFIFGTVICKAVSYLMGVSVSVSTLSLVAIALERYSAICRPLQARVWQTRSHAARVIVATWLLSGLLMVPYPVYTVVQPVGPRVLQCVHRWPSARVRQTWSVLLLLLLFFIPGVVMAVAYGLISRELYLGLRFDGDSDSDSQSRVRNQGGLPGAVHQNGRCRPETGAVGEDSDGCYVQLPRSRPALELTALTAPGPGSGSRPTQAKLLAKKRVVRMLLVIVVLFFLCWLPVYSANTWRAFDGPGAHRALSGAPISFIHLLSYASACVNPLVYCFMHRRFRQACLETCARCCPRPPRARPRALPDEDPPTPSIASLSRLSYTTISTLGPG

In the case of `CSCC[C@H](NC(=O)[C@H](Cc1c[nH]c2ccccc12)NC(=O)CNC(=O)[C@H](Cc1ccc(O)cc1)NC(=O)[C@H](C)NC(=O)[C@@H](CCC(=O)O)NC(=O)CCSC1CC(=O)N(CCC(=O)NC2CCCN(O)C(=O)C=C(C)CCOC(=O)C(NC(C)=O)CCCN(O)C(=O)C=C(C)CCOC(=O)C(NC(C)=O)CCCN(O)C(=O)C=C(C)CCOC2=O)C1=O)C(=O)N[C@@H](CC(=O)O)C(=O)N[C@@H](Cc1ccccc1)C(N)=O` (stereo partly shown) [^89Zr-labelled Monomer, metal not drawn], the “Distribution coefficient logD (pH 7.4)” value [1] is reported as −3.17 ± 0.06, the “Tumour-to-organ ratio (T/O): A431-mock” value [2] is reported as 7.5 ± 1.8 and the “Tumour-to-organ ratio (T/O): Blood” value [2] is reported as 9.0 ± 4.7^b. The “Tumour-to-organ ratio (T/O): Bone” value [2] was 4.7 ± 1.3^b, the “Tumour-to-organ ratio (T/O): Heart” value [2] was 14.8 ± 4.7^b and the “Tumour-to-organ ratio (T/O): Intestine” value [2] was 7.9 ± 2.3. The “Tumour-to-organ ratio (T/O): Kidneys” value [2] was 0.17 ± 0.03^b, the “Tumour-to-organ ratio (T/O): Liver” value [2] was 12.4 ± 2.8^b and the “Tumour-to-organ ratio (T/O): Lung” value [2] was 6.5 ± 1.6^b. For the same compound, the “Tumour-to-organ ratio (T/O): Muscle” value [2] was 15.9 ± 4.2^b, the “Tumour-to-organ ratio (T/O): Pancreas” value [2] was 13.3 ± 2.9^b and the “Tumour-to-organ ratio (T/O): Spleen” value [2] was 18.7 ± 6.1^b. The “Tumour-to-organ ratio (T/O): Stomach” value [2] was 4.9 ± 1.3^b, the “Biodistribution: A431-CCK2R tumour (receptor positive)” value (“Biodistribution: A431-CCK2R tumour” below) ([2]; 1 h) was 1.91 ± 0.40 % ID/g and the “Biodistribution: A431-mock tumour (receptor negative)” value (“Biodistribution: A431-mock tumour” for short) ([2]; 1 h) was 0.26 ± 0.05^ab % ID/g. For the same compound, the “Biodistribution: Blood” value ([2]; 1 h) was 0.30 ± 0.19^ab % ID/g, the “Biodistribution: Bone” value ([2]; 1 h) was 0.42 ± 0.10^ab % ID/g and the “Biodistribution: Heart” value ([2]; 1 h) was 0.14 ± 0.05^ab % ID/g. The “Biodistribution: Intestine” value ([2]; 1 h) was 0.27 ± 0.10^abd % ID/g, the “Biodistribution: Kidneys” value ([2]; 1 h) was 11.3 ± 2.10^ab % ID/g and the “Biodistribution: Liver” value ([2]; 1 h) was 0.16 ± 0.04^abd % ID/g. For the same compound, the “Biodistribution: Lung” value ([2]; 1 h) was 0.31 ± 0.09^ab % ID/g, the “Biodistribution: Muscle” value ([2]; 1 h) was 0.13 ± 0.04^ab % ID/g and the “Biodistribution: Pancreas” value ([2]; 1 h) was 0.15 ± 0.04^abd % ID/g. For the same compound, the “Biodistribution: Spleen” value ([2]; 1 h) was 0.12 ± 0.04^ab % ID/g and the “Biodistribution: Stomach” value ([2]; 1 h) was 0.42 ± 0.14^abd % ID/g.
In the case of `CSCC[C@H](NC(=O)[C@H](Cc1c[nH]c2ccccc12)NC(=O)CNC(=O)[C@H](Cc1ccc(O)cc1)NC(=O)[C@H](C)NC(=O)[C@@H](CCC(=O)O)NC(=O)CCSC1CC(=O)N(CCC(=O)NC2CCCN(O)C(=O)C=C(C)CCOC(=O)C(NC(=O)CCN3C(=O)CC(SCCC(=O)N[C@H](CCC(=O)O)C(=O)N[C@@H](C)C(=O)N[C@@H](Cc4ccc(O)cc4)C(=O)NCC(=O)N[C@@H](Cc4c[nH]c5ccccc45)C(=O)N[C@@H](CCSC)C(=O)N[C@@H](CC(=O)O)C(=O)N[C@@H](Cc4ccccc4)C(N)=O)C3=O)CCCN(O)C(=O)C=C(C)CCOC(=O)C(NC(=O)CCN3C(=O)CC(SCCC(=O)N[C@H](CCC(=O)O)C(=O)N[C@@H](C)C(=O)N[C@@H](Cc4ccc(O)cc4)C(=O)NCC(=O)N[C@@H](Cc4c[nH]c5ccccc45)C(=O)N[C@@H](CCSC)C(=O)N[C@@H](CC(=O)O)C(=O)N[C@@H](Cc4ccccc4)C(N)=O)C3=O)CCCN(O)C(=O)C=C(C)CCOC2=O)C1=O)C(=O)N[C@@H](CC(=O)O)C(=O)N[C@@H](Cc1ccccc1)C(N)=O` (stereo partly shown) [^89Zr-labelled Trimer, metal not drawn], the “Distribution coefficient logD (pH 7.4)” value [1] is reported as −2.41 ± 0.04, the “Biodistribution: A431-CCK2R tumour” value ([2]; 1 h) is reported as 4.28 ± 0.95^b % ID/g and the “Biodistribution: A431-mock tumour” value ([2]; 1 h) is reported as 0.81 ± 0.24^d % ID/g. The “Biodistribution: Blood” value ([2]; 1 h) was 1.46 ± 0.32^d % ID/g, the “Biodistribution: Bone” value ([2]; 1 h) was 1.39 ± 0.65 % ID/g and the “Biodistribution: Heart” value ([2]; 1 h) was 0.92 ± 0.21^d % ID/g. The “Biodistribution: Intestine” value ([2]; 1 h) was 0.56 ± 0.14^d % ID/g, the “Biodistribution: Kidneys” value ([2]; 1 h) was 57.7 ± 14.4^e % ID/g and the “Biodistribution: Liver” value ([2]; 1 h) was 0.84 ± 0.21^d % ID/g. The “Biodistribution: Lung” value ([2]; 1 h) was 1.44 ± 0.39^d % ID/g, the “Biodistribution: Muscle” value ([2]; 1 h) was 0.47 ± 0.18^cd % ID/g and the “Biodistribution: Pancreas” value ([2]; 1 h) was 1.56 ± 0.44 % ID/g. For the same compound, the “Biodistribution: Spleen” value ([2]; 1 h) was 0.79 ± 0.23^d % ID/g, the “Biodistribution: Stomach” value ([2]; 1 h) was 3.10 ± 0.97 % ID/g and the “Biodistribution: A431-CCK2R tumour” value ([2]; 2 h) was 8.90 ± 3.10^e % ID/g. The “Biodistribution: A431-mock tumour” value ([2]; 2 h) was 0.93 ± 0.29^d % ID/g, the “Biodistribution: Blood” value ([2]; 2 h) was 1.19 ± 0.32^d % ID/g and the “Biodistribution: Bone” value ([2]; 2 h) was 2.07 ± 0.68 % ID/g. The “Biodistribution: Heart” value ([2]; 2 h) was 0.91 ± 0.25^d % ID/g, the “Biodistribution: Intestine” value ([2]; 2 h) was 0.44 ± 0.30^d % ID/g and the “Biodistribution: Kidneys” value ([2]; 2 h) was 96.5 ± 23.6^f % ID/g. The “Biodistribution: Liver” value ([2]; 2 h) was 1.28 ± 0.35^d % ID/g, the “Biodistribution: Lung” value ([2]; 2 h) was 1.21 ± 0.23^d % ID/g and the “Biodistribution: Muscle” value ([2]; 2 h) was 0.42 ± 0.07^d % ID/g. The “Biodistribution: Pancreas” value ([2]; 2 h) was 1.51 ± 0.40 % ID/g, the “Biodistribution: Spleen” value ([2]; 2 h) was 0.90 ± 0.25^d % ID/g and the “Biodistribution: Stomach” value ([2]; 2 h) was 3.15 ± 0.75 % ID/g. The “Biodistribution: A431-CCK2R tumour” value ([2]; 4 h) was 14.39 ± 3.92 % ID/g, the “Biodistribution: A431-mock tumour” value ([2]; 4 h) was 0.66 ± 0.06^d % ID/g and the “Biodistribution: Blood” value ([2]; 4 h) was 0.75 ± 0.26^d % ID/g. The “Biodistribution: Bone” value ([2]; 4 h) was 4.41 ± 1.31 % ID/g, the “Biodistribution: Heart” value ([2]; 4 h) was 0.91 ± 0.09^d % ID/g and the “Biodistribution: Intestine” value ([2]; 4 h) was 0.65 ± 0.07^d % ID/g. The “Biodistribution: Kidneys” value ([2]; 4 h) was 150.5 ± 18.3 % ID/g, the “Biodistribution: Liver” value ([2]; 4 h) was 1.71 ± 0.32^d % ID/g and the “Biodistribution: Lung” value ([2]; 4 h) was 0.84 ± 0.20^d % ID/g. For the same compound, the “Biodistribution: Muscle” value ([2]; 4 h) was 0.62 ± 0.23 % ID/g, the “Biodistribution: Pancreas” value ([2]; 4 h) was 2.34 ± 0.59 % ID/g and the “Biodistribution: Spleen” value ([2]; 4 h) was 0.95 ± 0.13^d % ID/g. The “Biodistribution: Stomach” value ([2]; 4 h) was 3.50 ± 0.86^d % ID/g.
For “DOTA-MG11: reference peptide: DOTA-conjugated minigastrin analogue MG11 (EAYGWMDF; synthetic human minigastrin analogue)”, the IC50 [3] is listed as 9.5 ± 0.5 nM.
